Laboratory results: US11612662B2, “Multi-arm polymeric prodrug conjugates of pemetrexed-based compounds” (priority 2010, dated 2023)

Assays:
in vivo = conditions: for maximum treatment-related body weight loss / tolerability of the dosage level / Days of Deaths (s = surviving at study end) / time to recover lost body weight / common clinical signs / necropsy findings / Max. Mean Body Weight change during Rx (%) / % Rx Related Deaths / Day of Max. Mean Body Weight Loss (body weight nadir): low folate diet; for tolerability of the dosage level: tolerated if treatment-related weight loss <20%; for Days of Deaths (s = surviving at study end): five mice listed singly; for Max. Mean Body Weight change during Rx (%) / MTD (maximum tolerated dose): intravenously once each day for ten days; for % Rx Related Deaths / Day of Max. Mean Body Weight Loss (body weight nadir): once each day for ten days; for MTD (maximum tolerated dose): mice fed a folate deficient diet, dose equivalents
Procedure: The purpose of this study was to determine the maximum tolerated dose for pemetrexed (PMX), Compound 20a (from Example 1), Compound 20b (from Example 1), Compound 20c (from Example 1), and Compound 20d (from Example 1) in female SCID mice fed a low folate diet. All compounds were administered intravenously, once each day, for ten consecutive days.
Calculations were made to provide “dose equivalents” between PMX, Compound 20a, Compound 20b, Compound 20c and Compound 20d, which “dose equivalents” along with the “actual dose” administered are provided in Table 2. All dosagese in this example are expressed in terms of “dose equivalents” and adjustments were made for excipients, salts and hydration state.
Female SCID mice (HsdIcr:Ha (ICR)-Prkdc-scid) were obtained from Harlan. They were seven weeks old on Day 1 of the experiment. The mice in Groups 1 and 2 were fed irradiated Rodent Diet 5053 (LabDiet™). The mice in Groups 3 through 19 were fed irradiated Folic Acid Deficient Purina TestDiet supplemented with 1% succinylsufathiazol from 14 days prior to dosing until 14 days after dosing was completed, at which time the study was terminated and the mice were then euthanized. All groups received drinking water ad libitum. Mice were housed in static cages in clean rooms that provide H.E.P.A filtered air into the environment at 100 complete air changes per hour. All treatments, body weight determinations, and tumor measurements were carried out in the environment. The environment was controlled to a temperature range of 70°±2° F. and a humidity range of 30-70%. […] Mice found in obvious distress or in a moribund condition were euthanized. The study was carried out in an AAALAC accredited facility.
Treatments began on Day 1. […] Mice in Groups 3 through 19 were fed irradiated Folic Acid Deficient Purina TestDiet with 1% Succinylsufathiazol for 14 days prior to dosing as well as throughout the entire experiment. All mice were dosed according to individual body weight on the day of treatment (0.2 ml/20 g).
Mice were weighed on each day of treatment and at least three times weekly thereafter. Individual body weights were recorded three times weekly. […] In this report, a dosage level is described as tolerated if treatment-related weight loss (during and two weeks after treatment) is <20%. Upon death or euthanasia, all mice were necropsied to provide a general assessment of potential cause of death and perhaps target organs for toxicity.

[1] = Single dose maximum tolerated dose study; type: in vivo, mice; conditions: single intravenous dose; for Single dose MTD: dose equivalents
Procedure: Because of too much efficacy of daily dosing for ten days in a pilot xenograft study (likely due to the effects of repeated dosing), a single dose maximum tolerated dose study was conducted using a method similar to that provided in Example 3 in order to have a better dosing schedule for a comparative xenograft study.

xenograft = assay: In vivo xenograft study; design: species or system female athymic nu/nu mice; conditions: as of day 26; intravenously, at 80% and at 50% of the single dose maximum tolerated dose
Procedure: Briefly, for run of the experiment, a previously untreated group of 8-12 week old mice was intravenously administered a test article prepared in saline and diluted to appropriate concentrations to allow administration volumes of a maximum of 20 mL/kg. Each compound of interest was tested twice: once at 80% of the maximum tolerated dose and once at 50% of the maximum tolerated (maximum tolerated doses calculated on the single dose maximum tolerated dose study).
Mice were observed daily for clinical signs and body weights were recorded daily (except on weekend days) then biweekly until the end of study. Dosing was terminated for any group in which mean weight loss exceeded 20% or >10% of animals died. Moribund animals were euthanized.

[2] = 3.75 mg/kg/inj dose equivalents

Substance: 4-arm-PEG10k-γ-amide-Pemetrexed Conjugate [Compound 20a]
- maximum treatment-related body weight loss (in vivo; 1 mg/kg): approximately 3.0%
- tolerability of the dosage level (in vivo; 1 mg/kg): tolerated
- maximum treatment-related body weight loss (in vivo; 3.75 mg/kg): approximately 3.0%
- Days of Deaths (s = surviving at study end) (in vivo; [2]): s, s, s, s, s
- tolerability of the dosage level (in vivo; 3.75 mg/kg): tolerated
- maximum treatment-related body weight loss (in vivo; 15 mg/kg): 14.9%
- time to recover lost body weight (in vivo; 15 mg/kg): approximately 10 days
- tolerability of the dosage level (in vivo; 15 mg/kg): toxic
- common clinical signs (in vivo; dosage levels found tolerated): Rough pelage
- necropsy findings (in vivo; dosage levels found tolerated): bloated intestines and air filled stomachs
- Max. Mean Body Weight change during Rx (%) (in vivo; 1 mg/kg/inj dose equivalents): −3.4%
- Max. Mean Body Weight change during Rx (%) (in vivo; [2]): −3.0%
- Max. Mean Body Weight change during Rx (%) (in vivo; 15 mg/kg/inj dose equivalents): −14.9%
- % Rx Related Deaths (in vivo; 1 mg/kg/inj dose equivalents): 20%
- Day of Max. Mean Body Weight Loss (body weight nadir) (in vivo; 1 mg/kg/inj dose equivalents): 5
- % Rx Related Deaths (in vivo; [2]): 0%
- Day of Max. Mean Body Weight Loss (body weight nadir) (in vivo; [2]): 8
- % Rx Related Deaths (in vivo; 15 mg/kg/inj dose equivalents): 40%
- Day of Max. Mean Body Weight Loss (body weight nadir) (in vivo; 15 mg/kg/inj dose equivalents): 8
- MTD (maximum tolerated dose) (in vivo): 3.75 to 15 mg/kg

Substance: 4-arm-PEG20k-γ-amide-Pemetrexed Conjugate [Compound 20b]
- Days of Deaths (s = surviving at study end) (in vivo; 1 mg/kg/inj dose equivalents): s, s, s, s, s
- tolerability of the dosage level (in vivo; 1 mg/kg): well tolerated
- Days of Deaths (s = surviving at study end) (in vivo; [2]): s, s, s, s, s
- tolerability of the dosage level (in vivo; 3.75 mg/kg): well tolerated
- Days of Deaths (s = surviving at study end) (in vivo; 15 mg/kg/inj dose equivalents): s, s, s, s, s
- tolerability of the dosage level (in vivo; 15 mg/kg): well tolerated
- common clinical signs (in vivo; dosage levels found tolerated): Rough pelage
- necropsy findings (in vivo; dosage levels found tolerated): Nothing significant
- Max. Mean Body Weight change during Rx (%) (in vivo; 1 mg/kg/inj dose equivalents): −1.8%
- Max. Mean Body Weight change during Rx (%) (in vivo; [2]): −6.5%
- Max. Mean Body Weight change during Rx (%) (in vivo; 15 mg/kg/inj dose equivalents): −16.9%
- Day of Max. Mean Body Weight Loss (body weight nadir) (in vivo; 1 mg/kg/inj dose equivalents): 5
- Day of Max. Mean Body Weight Loss (body weight nadir) (in vivo; [2]): 5
- Day of Max. Mean Body Weight Loss (body weight nadir) (in vivo; 15 mg/kg/inj dose equivalents): 12
- MTD (maximum tolerated dose) (in vivo): ~15 mg/kg
- Single dose MTD ([1]; in mg/kg): 70
- BWL (body weight loss) ([1]; tested dose (equiv) 70): −8.7%
- day (of body weight loss) ([1]; tested dose (equiv) 70): 7
- treatment-related deaths ([1]; tested dose (equiv) 70): 0
- BWL (body weight loss) ([1]; tested dose (equiv) 95): −16.4%
- day (of body weight loss) ([1]; tested dose (equiv) 95): 7
- treatment-related deaths ([1]; tested dose (equiv) 95): 0
- BWL (body weight loss) ([1]; tested dose (equiv) 125): −24.4%
- day (of body weight loss) ([1]; tested dose (equiv) 125): 7
- mean day of death ([1]; tested dose (equiv) 125): 9
- treatment-related deaths ([1]; tested dose (equiv) 125): 1
- tumor volume compared with saline control (xenograft): significantly less tumor volume than saline control
- tumor volume compared with the other articles tested (xenograft): lowest tumor volumes of all articles tested

Substance: 4-arm-PEG30k-γ-amide-Pemetrexed Conjugate [Compound 20c]
- maximum treatment-related body weight loss (in vivo; 1 mg/kg): 4.8%
- time to recover lost body weight (in vivo; 1 mg/kg): 5.5 days
- Days of Deaths (s = surviving at study end) (in vivo; 1 mg/kg/inj dose equivalents): s, s, s, s, s
- tolerability of the dosage level (in vivo; 1 mg/kg): tolerated
- maximum treatment-related body weight loss (in vivo; 3.75 mg/kg): 1.4%
- time to recover lost body weight (in vivo; 3.75 mg/kg): 2.2 days
- Days of Deaths (s = surviving at study end) (in vivo; [2]): s, s, s, s, s
- tolerability of the dosage level (in vivo; 3.75 mg/kg): tolerated
- maximum treatment-related body weight loss (in vivo; 15 mg/kg): 18.8%
- time to recover lost body weight (in vivo; 15 mg/kg): not recovered prior to study termination
- tolerability of the dosage level (in vivo; 15 mg/kg): toxic
- common clinical signs (in vivo; dosage levels found tolerated): Rough pelage
- necropsy findings (in vivo; dosage levels found tolerated): no significant findings
- necropsy findings (in vivo; dosage levels found toxic): Necrotic intestines
- Max. Mean Body Weight change during Rx (%) (in vivo; 1 mg/kg/inj dose equivalents): −4.8%
- Max. Mean Body Weight change during Rx (%) (in vivo; [2]): −1.4%
- Max. Mean Body Weight change during Rx (%) (in vivo; 15 mg/kg/inj dose equivalents): −22.0%
- % Rx Related Deaths (in vivo; 1 mg/kg/inj dose equivalents): 0%
- Day of Max. Mean Body Weight Loss (body weight nadir) (in vivo; 1 mg/kg/inj dose equivalents): 10
- % Rx Related Deaths (in vivo; [2]): 0%
- Day of Max. Mean Body Weight Loss (body weight nadir) (in vivo; [2]): 5
- % Rx Related Deaths (in vivo; 15 mg/kg/inj dose equivalents): 20%
- Day of Max. Mean Body Weight Loss (body weight nadir) (in vivo; 15 mg/kg/inj dose equivalents, 15 mg/kg): 19
- Single dose MTD [1]: <40
- BWL (body weight loss) ([1]; tested dose (equiv) 40): −19.6%
- day (of body weight loss) ([1]; tested dose (equiv) 40): 9
- mean day of death ([1]; tested dose (equiv) 40): 12
- treatment-related deaths ([1]; tested dose (equiv) 40): 5
- BWL (body weight loss) ([1]; tested dose (equiv) 70): −25.0%
- day (of body weight loss) ([1]; tested dose (equiv) 70): 9
- mean day of death ([1]; tested dose (equiv) 70): 10.5
- treatment-related deaths ([1]; tested dose (equiv) 70): 2
- BWL (body weight loss) ([1]; tested dose (equiv) 95): −27.1%
- day (of body weight loss) ([1]; tested dose (equiv) 95): 7
- mean day of death ([1]; tested dose (equiv) 95): 9
- treatment-related deaths ([1]; tested dose (equiv) 95): 3
- BWL (body weight loss) ([1]; tested dose (equiv) 125): −25.3%
- day (of body weight loss) ([1]; tested dose (equiv) 125): 9
- mean day of death ([1]; tested dose (equiv) 125): 10.5
- treatment-related deaths ([1]; tested dose (equiv) 125): 2
- tumor volume compared with saline control (xenograft): significantly less tumor volume than saline control
- tumor volume compared with the other articles tested (xenograft): lowest tumor volumes of all articles tested

Substance: 4-arm-PEG-20k-γ-Ethyl-Ester-pemetrexed [Compound 24b]
- Single dose MTD ([1]; in mg/kg): 12
- treatment-related deaths ([1]; tested dose (equiv) 8): 0
- BWL (body weight loss) ([1]; tested dose (equiv) 12): −8.9%
- day (of body weight loss) ([1]; tested dose (equiv) 12): 5
- treatment-related deaths ([1]; tested dose (equiv) 12): 0
- BWL (body weight loss) ([1]; tested dose (equiv) 20): −10.4%
- day (of body weight loss) ([1]; tested dose (equiv) 20): 5
- treatment-related deaths ([1]; tested dose (equiv) 20): 0
- tumor volume compared with saline control (xenograft): significantly less tumor volume than saline control

Substance: 4-arm-PEG-20k-γ-isopropyl-ester-pemetrexed [Compound 28]
- Single dose MTD ([1]; in mg/kg): 10
- BWL (body weight loss) ([1]; tested dose (equiv) 10): −7.3%
- day (of body weight loss) ([1]; tested dose (equiv) 10): 9
- treatment-related deaths ([1]; tested dose (equiv) 10): 0
- BWL (body weight loss) ([1]; tested dose (equiv) 18): −6.6%
- day (of body weight loss) ([1]; tested dose (equiv) 18): 5
- treatment-related deaths ([1]; tested dose (equiv) 18): 0
- BWL (body weight loss) ([1]; tested dose (equiv) 25): −9.1%
- day (of body weight loss) ([1]; tested dose (equiv) 25): 7
- treatment-related deaths ([1]; tested dose (equiv) 25): 0
- tumor volume compared with saline control (xenograft): significantly less tumor volume than saline control

Substance: 4-arm-PEG-40k-γ-Ethyl-Ester-pemetrexed [Compound 24c]
- Single dose MTD ([1]; in mg/kg): 10
- BWL (body weight loss) ([1]; tested dose (equiv) 5): −0.5%
- day (of body weight loss) ([1]; tested dose (equiv) 5): 5
- treatment-related deaths ([1]; tested dose (equiv) 5): 0
- BWL (body weight loss) ([1]; tested dose (equiv) 10): −7.6%
- day (of body weight loss) ([1]; tested dose (equiv) 10): 5
- treatment-related deaths ([1]; tested dose (equiv) 10): 0
- BWL (body weight loss) ([1]; tested dose (equiv) 15): −15.7%
- day (of body weight loss) ([1]; tested dose (equiv) 15): 7
- treatment-related deaths ([1]; tested dose (equiv) 15): 0
- tumor volume compared with saline control (xenograft): significantly less tumor volume than saline control
